# Molecular target: preformed, sonicated Aβ aggregates (UniProt P05067 672-713)
# Assay: cell-based or functional assay
# Chain of preformed, sonicated Aβ aggregates (P05067 672-713): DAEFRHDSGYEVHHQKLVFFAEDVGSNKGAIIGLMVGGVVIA
binder,measurement,value
KLWFFAGSGAPIGL [AbCap_25],aggregation seeding capacity of Aβ in Aβ biosensor cells (IC50),1.42 µM
